Experiments:
Aβ1-42 peptide = molecular target: T1, Aβ1-42 peptide; test: ELISA, nonbiotinylated peptide on plate
T1 construct: also called 1-42 (WT)
Protocol: (§1) ELISA was used for measuring binding of antibody 6G and variants to nonbiotinylated Aβ peptides. NUNC maxisorp plates were coated with 2.5 ug/ml of Aβ peptides in PBS pH 7.4 for more than 1 hour at 4° C. Plates were blocked with 1% BSA in PBS buffer pH 7.4. Primary antibody (from cell supernatants, serum containing anti-Aβ antibody, or purified full antibody or Fabs at desired dilution) was incubated with the immobilized Aβ peptides for 1 h at room temperature. After washing, the plates were incubated with secondary antibody, a HRP conjugated goat anti-human kappa chain antibody (MP Biomedicals, 55233) at 1:5000 dilution. After washing, bound secondary antibody was measured by adding TMB substrate (KPL, 50-76-02, 50-65-02). The HRP reaction was stopped by adding 1M phosphoric acid and absorbance at 450 nm was measured.
(§2) All amino acid substitutions of the variants shown in Table 8 are described relative to the sequence of 6G. Binding was determined by ELISA described above with nonbiotinylated Aβ₁₋₄₀ or Aβ₁₋₄₂ immobilized on the surface of an ELISA plate.

Aβ1-40 peptide = molecular target: T2, Aβ1-40 peptide; test: ELISA, nonbiotinylated peptide on plate
T2 construct: synthetic peptide, not biotinylated; also called 1-40 (WT); beta amyloid 1-40
Protocol: as §1, §2

T2 sequence (peptide, as listed by the source): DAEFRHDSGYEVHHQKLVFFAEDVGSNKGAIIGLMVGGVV
T1 sequence (peptide, as listed by the source): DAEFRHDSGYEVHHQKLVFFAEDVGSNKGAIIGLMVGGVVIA

Row | Binder | A450 ELISA (Aβ1-42 peptide) [A450] | A450 ELISA (Aβ1-40 peptide) [A450]
1 | 6G heavy chain variant 3C (D103G) (antibody, V domains shown) VH: QVQLVQSGAEVKKPGASVKVSCKASGYTFTTYAIHWVRQAPGQGLEWMGFTSPYSGVSNYNQKFKGRVTMTRDTSTSTVYMELSSLRSEDTAVYYCARFDNYGRGYVRDYWGQGTLVTVS VL: DIVMTQSPDSLAVSLGERATINCRASESVDNDRISFLNWYQQKPGQPPKLLIYAATKQGTGVPDRFSGSGSGTDFTLTISSLQAEDVAVYYCQQSKEFPWSFGGGTKVEIKR | 0.76 | 2.3
2 | 6G heavy chain variant 4B (R104F) (antibody, V domains shown) VH: QVQLVQSGAEVKKPGASVKVSCKASGYTFTTYAIHWVRQAPGQGLEWMGFTSPYSGVSNYNQKFKGRVTMTRDTSTSTVYMELSSLRSEDTAVYYCARFDNYDFGYVRDYWGQGTLVTVS VL: DIVMTQSPDSLAVSLGERATINCRASESVDNDRISFLNWYQQKPGQPPKLLIYAATKQGTGVPDRFSGSGSGTDFTLTISSLQAEDVAVYYCQQSKEFPWSFGGGTKVEIKR | 0.71 | 2.48
3 | 6G heavy chain variant 4D (R104Q) (antibody, V domains shown) VH: QVQLVQSGAEVKKPGASVKVSCKASGYTFTTYAIHWVRQAPGQGLEWMGFTSPYSGVSNYNQKFKGRVTMTRDTSTSTVYMELSSLRSEDTAVYYCARFDNYDQGYVRDYWGQGTLVTVS VL: DIVMTQSPDSLAVSLGERATINCRASESVDNDRISFLNWYQQKPGQPPKLLIYAATKQGTGVPDRFSGSGSGTDFTLTISSLQAEDVAVYYCQQSKEFPWSFGGGTKVEIKR | 1 | 2.45
4 | 6G heavy chain variant 6F (R104S) (antibody, V domains shown) VH: QVQLVQSGAEVKKPGASVKVSCKASGYTFTTYAIHWVRQAPGQGLEWMGFTSPYSGVSNYNQKFKGRVTMTRDTSTSTVYMELSSLRSEDTAVYYCARFDNYDSGYVRDYWGQGTLVTVS VL: DIVMTQSPDSLAVSLGERATINCRASESVDNDRISFLNWYQQKPGQPPKLLIYAATKQGTGVPDRFSGSGSGTDFTLTISSLQAEDVAVYYCQQSKEFPWSFGGGTKVEIKR | 0.62 | 2.28
5 | 6G heavy chain variant 8H (N101H) (antibody, V domains shown) VH: QVQLVQSGAEVKKPGASVKVSCKASGYTFTTYAIHWVRQAPGQGLEWMGFTSPYSGVSNYNQKFKGRVTMTRDTSTSTVYMELSSLRSEDTAVYYCARFDHYDRGYVRDYWGQGTLVTVS VL: DIVMTQSPDSLAVSLGERATINCRASESVDNDRISFLNWYQQKPGQPPKLLIYAATKQGTGVPDRFSGSGSGTDFTLTISSLQAEDVAVYYCQQSKEFPWSFGGGTKVEIKR | 0.19 | –
6 | 6G heavy chain variant 9E (N101R) (antibody, V domains shown) VH: QVQLVQSGAEVKKPGASVKVSCKASGYTFTTYAIHWVRQAPGQGLEWMGFTSPYSGVSNYNQKFKGRVTMTRDTSTSTVYMELSSLRSEDTAVYYCARFDRYDRGYVRDYWGQGTLVTVS VL: DIVMTQSPDSLAVSLGERATINCRASESVDNDRISFLNWYQQKPGQPPKLLIYAATKQGTGVPDRFSGSGSGTDFTLTISSLQAEDVAVYYCQQSKEFPWSFGGGTKVEIKR | 0.26 | –
7 | 6G heavy chain variant 10G (Y102I) (antibody, V domains shown) VH: QVQLVQSGAEVKKPGASVKVSCKASGYTFTTYAIHWVRQAPGQGLEWMGFTSPYSGVSNYNQKFKGRVTMTRDTSTSTVYMELSSLRSEDTAVYYCARFDNIDRGYVRDYWGQGTLVTVS VL: DIVMTQSPDSLAVSLGERATINCRASESVDNDRISFLNWYQQKPGQPPKLLIYAATKQGTGVPDRFSGSGSGTDFTLTISSLQAEDVAVYYCQQSKEFPWSFGGGTKVEIKR | 0.22 | 0.63
8 | 6G heavy chain variant 11D (Y102M) (antibody, V domains shown) VH: QVQLVQSGAEVKKPGASVKVSCKASGYTFTTYAIHWVRQAPGQGLEWMGFTSPYSGVSNYNQKFKGRVTMTRDTSTSTVYMELSSLRSEDTAVYYCARFDNMDRGYVRDYWGQGTLVTVS VL: DIVMTQSPDSLAVSLGERATINCRASESVDNDRISFLNWYQQKPGQPPKLLIYAATKQGTGVPDRFSGSGSGTDFTLTISSLQAEDVAVYYCQQSKEFPWSFGGGTKVEIKR | 0.24 | 0.29
9 | 6G light chain variant 2H (Q93K) (antibody, V domains shown) VH: QVQLVQSGAEVKKPGASVKVSCKASGYTFTTYAIHWVRQAPGQGLEWMGFTSPYSGVSNYNQKFKGRVTMTRDTSTSTVYMELSSLRSEDTAVYYCARFDNYDRGYVRDYWGQGTLVTVS VL: DIVMTQSPDSLAVSLGERATINCRASESVDNDRISFLNWYQQKPGQPPKLLIYAATKQGTGVPDRFSGSGSGTDFTLTISSLQAEDVAVYYCKQSKEFPWSFGGGTKVEIKR | 0.13 | 0.07
10 | 6G light chain variant 3A (Q93P) (antibody, V domains shown) VH: QVQLVQSGAEVKKPGASVKVSCKASGYTFTTYAIHWVRQAPGQGLEWMGFTSPYSGVSNYNQKFKGRVTMTRDTSTSTVYMELSSLRSEDTAVYYCARFDNYDRGYVRDYWGQGTLVTVS VL: DIVMTQSPDSLAVSLGERATINCRASESVDNDRISFLNWYQQKPGQPPKLLIYAATKQGTGVPDRFSGSGSGTDFTLTISSLQAEDVAVYYCPQSKEFPWSFGGGTKVEIKR | 0.13 | 0.08
11 | 6G light chain variant 5H (E97R) (antibody, V domains shown) VH: QVQLVQSGAEVKKPGASVKVSCKASGYTFTTYAIHWVRQAPGQGLEWMGFTSPYSGVSNYNQKFKGRVTMTRDTSTSTVYMELSSLRSEDTAVYYCARFDNYDRGYVRDYWGQGTLVTVS VL: DIVMTQSPDSLAVSLGERATINCRASESVDNDRISFLNWYQQKPGQPPKLLIYAATKQGTGVPDRFSGSGSGTDFTLTISSLQAEDVAVYYCQQSKRFPWSFGGGTKVEIKR | 0.85 | 2.6
12 | 6G light chain variant 6C (E97G) (antibody, V domains shown) VH: QVQLVQSGAEVKKPGASVKVSCKASGYTFTTYAIHWVRQAPGQGLEWMGFTSPYSGVSNYNQKFKGRVTMTRDTSTSTVYMELSSLRSEDTAVYYCARFDNYDRGYVRDYWGQGTLVTVS VL: DIVMTQSPDSLAVSLGERATINCRASESVDNDRISFLNWYQQKPGQPPKLLIYAATKQGTGVPDRFSGSGSGTDFTLTISSLQAEDVAVYYCQQSKGFPWSFGGGTKVEIKR | 0.05 | 0.05
13 | 6G light chain variant 7E (Q94R) (antibody, V domains shown) VH: QVQLVQSGAEVKKPGASVKVSCKASGYTFTTYAIHWVRQAPGQGLEWMGFTSPYSGVSNYNQKFKGRVTMTRDTSTSTVYMELSSLRSEDTAVYYCARFDNYDRGYVRDYWGQGTLVTVS VL: DIVMTQSPDSLAVSLGERATINCRASESVDNDRISFLNWYQQKPGQPPKLLIYAATKQGTGVPDRFSGSGSGTDFTLTISSLQAEDVAVYYCQRSKEFPWSFGGGTKVEIKR | – | 0.09
14 | 6G light chain variant 7F (Q94K) (antibody, V domains shown) VH: QVQLVQSGAEVKKPGASVKVSCKASGYTFTTYAIHWVRQAPGQGLEWMGFTSPYSGVSNYNQKFKGRVTMTRDTSTSTVYMELSSLRSEDTAVYYCARFDNYDRGYVRDYWGQGTLVTVS VL: DIVMTQSPDSLAVSLGERATINCRASESVDNDRISFLNWYQQKPGQPPKLLIYAATKQGTGVPDRFSGSGSGTDFTLTISSLQAEDVAVYYCQKSKEFPWSFGGGTKVEIKR | – | 0.12
15 | 6G light chain variant 10E (S95L) (antibody, V domains shown) VH: QVQLVQSGAEVKKPGASVKVSCKASGYTFTTYAIHWVRQAPGQGLEWMGFTSPYSGVSNYNQKFKGRVTMTRDTSTSTVYMELSSLRSEDTAVYYCARFDNYDRGYVRDYWGQGTLVTVS VL: DIVMTQSPDSLAVSLGERATINCRASESVDNDRISFLNWYQQKPGQPPKLLIYAATKQGTGVPDRFSGSGSGTDFTLTISSLQAEDVAVYYCQQLKEFPWSFGGGTKVEIKR | – | 0.08

Source: US20090022728A1 (RINAT NEUROSCIENCE, published 2009)
